{
  "source": "a protein production outcome set (Wang et al. 2014)",
  "data": [
    {"experiment": "label from the status in PepcDB records", "values": [
      {"sequence": "MAKFNQDLNEVLNQALNLALDLNHALCTTEHVLLVILEHESGEKIIGTLERDDYDKLKQILKDYLLQYVPLKSDPAKMPARSFVLLRMLKRMYASCFESVGVEELLILMLDHPDCYASKLMDSFGIARLYSNPALLDLDNHGIPNDINDNEEAPKNTPLKKYAKNLSALAQDNALDPVIGREEEILRVIEILGRRKKNNPLLIGEAGVGKTSIAEALALKIAQKEVPEFLQEYEVYSLDLALMVAGAKYRGDFEKRLKKTLKEIQQNGRIILFIDEIHTLLGTGSSNAGSLDAANILKPVLTDGSLKCLGATTFEEYRSVFEKDKAFNRRFSVIKVEEPSKEACYLILKKIAPLYEEHHQVRYDESVFKACVDLTSDYMHDKFLPDKAIELLDEVGSRKKISPKKGKKIGVDDVKETLALKLKIPKMRLSSDKKALLRNLEKSLKNKIFAQAEAISLVSNAIKIQHCGLSAKNKPVGSFLFVGPSGVGKTELAKELALNLNLHFERFDMSEYKEAHSVAKLIGSPSGYVGFEQGGLLVNAIKKHPHCLLLLDEIEKAHSNVYDLLLQVMDNATLSDNLGNQASFKHVILIMTSNVGSKDKDTLGFFSAKNTKYDKAVKELLTPELRSRIDAIVPFNALSLEDFERIVSVELDKLKALALEQDITLKFHKEVVKFIAQKSYQTTLGAREIKKIIHNEIKTKLSDILLLQSFKKPCKIACLLEKNQLVLKEIKRAQKVKENDF", "protein production": "failed"},
      {"sequence": "MAKGPLVSFQALVENARDLVYVLDAGGAIRYASPNVRQVLGYDPEGHTRETLYALDFVHPEDRTYAEAALEDLLRHPGKTREFRLRLLDAWGRVRAVRVWGRNLLEDPAVRGIIINVHDETELEAERA", "protein production": "failed"},
      {"sequence": "MAKILEGPAMKLFNKWGIPVPNYVVIMDPERLAQLGEANKWLRESKLVVKAHEAIGGRFKLGLVKLGLNLEEALEASREMIGRKIGTAVVRQVIVAEMLEHDEEYYVSIAGNRDGAELLLSTKGGVDIEDNWDTVKRLFIPMDETPSVERLTEVAAEAGFTGEVAERVAKIAARLILCFDNEDAQSIEINPLVIRKSDMRFAALDAVMNVDYDARFRHADWDFKPVSEIGRPYTEAEQQIMEIDARIKGSVKFVEVPGGEIALLTAGGGASVFYSDAVVARGGTIANYAEYSGDPPDWAVEALTETICRLPKIRHIIVGGAIANFTDVKATFSGIINGLRESRSKGYLQNVTIWVRRGGPNENQGLAAIRKLQDEGFDIHVYDRSMPMTDIVDLAMNS", "protein production": "failed"},
      {"sequence": "MAKKRESPKLIKIKDAIKLINQQVSLIGIVLEQREPKQCRNNDWICTLRIIDDTYPSPGLTVNVFSKTLEQLPQIKNHDDMILFTRIKMQTFDSGERVNAACSRWVSSFALFEGVDFVCYQCSTNFHEEEALYKSAMDDLRKVFAGCSQVIKAMQSISYRTKPCSEVFSFLREIKIGKRFDLVCRILHADEDTSAVFVWDGTDAPPASILAKRSEEDKAFSSLSVHTLLSRDVLLSFPTVGTILRVHLSSHLFYRVKPGDWVKLYHLLCEVDRGSWVIKVTSSTKVHHLAQDDRLVEKIMRIYDKRLSSKLGHISFWCFPSPPGLTETDDNCAPFVTLMDIITFPKVTCKYRCIVRVVAAYPWQVEDFCSDENRRHHQVLLTLEDSTATLEAFLCNKDAEYFWGLGFQDTETLRKKRNWLLGIRESSNFVAPRNPPWIECCILSYYTNKADPWNTRLYRIFGTRLLH", "protein production": "failed"},
      {"sequence": "MAKKTKAKAAKAARPKAAKTAVAKAKPAKRGVAARSVAAKPPKVAPGELVTLLDFVRYAVSRFAEAGVVFAHGTTDPIAEAVFLVGEALHLHPDQFEMFASARVTTREAAAILGLIERRIGSRLPAAYLVNKIYMRGVPFYVDERVIVPRSYIGELLDSHFDGGDTSLIDAPEAIERVLDLCTGSGCLAILAAYAFPNATVDAVDLSKDALAVATRNVAEHRLDDRVSLYHGDLFGPLGDERYDLIITNPPYVDADGMASLPAECRAEPAMAFDGGDDGLTIIRRILAEAKHHLNPDGGLLCEVGRCRPQIEDEFPQLPLLWLDSEDSEAEVFWIAAADL", "protein production": "failed"},
      {"sequence": "MAKLAGQKVRIGGWVKTGRQQGKGTFAFLEVNDGSCPANLQVMVDSSLYDLSRLVATGTCVTVDGVLKIPPEGKGLKQSIELSVETVIAVGTVDP", "protein production": "not failed"},
      {"sequence": "MAKNAPRFVCQACGAVYPRWMGRCEACGEWNSIAEEAPAEALPKGQTGGRGGQRLSFVSLEGVGAPPPRLLTGIPELDRVAGGGLVAGSALLIGGDPGIGKSTLLLQAVAGLARGGARSVYISGEEAIDQVRLRALRLGLEKAPVDLAAATSVRDIVATLDSGEPPDVVVIDSIQTMYLDTLDSAPGTVAQVRAGSHELIRLAKRRGFVLFLVGHVTKEGQMAGPRVMEHMVDAVIYFEGERGHPFRILRAVKNRFGATDEIGVFEMSDAGLSEVPNPSALFLAERRGNVTGSCVFAGMEGTRPMLVEIQALVGPSAPGSARRAVVGWDGGRLAMVMAVLETRCGLALGGNDVYLNVAGGLRIGEPAADLAVAAALVSSFSGVPVPPDMVVFGEIGLSGEIRAVAHGDTRLKEAAKLGFDQALMPARPRDSGKRGGPGVKEGLRMREIGHLQDLVALLAPPENAGQGQRLEHHHHHH", "protein production": "not failed"},
      {"sequence": "MAKNDRKEPYPVINILECKACGRCLLACPKDVLFMSENLNARGYHYIEYKGEGCSGCASCYYTCPEPLALEIHIPLKKEEAE", "protein production": "failed"},
      {"sequence": "MAKNIQAIRGMNDYLPGETAIWQRIEGTLKNVLGSYGYSEIRLPIVEQTPLFKRAIGEVTDVVEKEMYTFEDRNGDSLTLRPEGTAGCVRAGIEHGLLYNQEQRLWYIGPMFRHERPQKGRYRQFHQLGCEVFGLQGPDIDAELIMLTARWWRALGISEHVTLELNSIGSLEARANYRDALVAFLEQHKEKLDEDCKRRMYTNPLRVLDSKNPEVQALLNDAPALGDYLDEESREHFAGLCKLLESAGIAYTVNQRLVRGLDYYNRTVFEWVTNSLGSQGTVCAGGRYDGLVEQLGGRATPAVGFAMGLERLVLLVQAVNPEFKADPVVDIYLVASGADTQSAAMALAERLRDELPGVKLMTNHGGGNFKKQFARADKWGARVAVVLGESEVANGTAVVKDLRSGEQTAVAQDSVAAHLRTLLG", "protein production": "not failed"},
      {"sequence": "MAKPPTTIEVSPTITLPQQDPSLMGVTVSINGADQRTDQALAKVTRDNQIVTLTASRDLRFLLQEVLEKQMTARGYMVGPNGPVNLQIIVSQLYADVSQGNVRYNIATKADIAIIATAQNGNKMTKNYRASYNVEGAFQASNKNIADAVNSVLTDTIADMSQDTSIHEFIKQNARLEHHHHHH", "protein production": "not failed"},
      {"sequence": "MAKPVLVRNTEEMMMNLDFPTYIKVAELGCSSGQNSFLAIFEIINTINVLCQHVNKNSPEIDCCLNDLPENDFNTTFKFVPFFNKELMITNKSSCFVYGAPGSFYSRLFSRNSLHLIHSSYALHWLSKVPEKLENNKGNLYITSSSPQSAYKAYLNQFQKDFTMFLRLRSEEIVSNGRMVLTFIGRNTLNDPLYRDCCHFWTLLSNSLRDLVFEGLVSESKLDAFNMPFYDPNVQELKEVIQKEGSFEINELESHGFDLGHYYEEDDFEAGRNEANGIRAVSEPMLIAHFGEEIIDTLFDKYAYHVTQHANCRNKTTVSLVVSLTKK", "protein production": "failed"},
      {"sequence": "MAKPVVETPLMRQYFQIKQKHPDAILLFRVGDFYETFSEDAIVASEILGITLTRRANGAAQFVELAGFPHHALDTYLPKLVRAGKRVAICDQLEDPKKTKTLVKRGITELVTPGVSTNDNVLSHKENNFLAAVSCGKEVFGISLLDISTGEFMAGQGNADYVEKLLTNYRPKEILVERSERSRFNDLFHWSGFIFDMEDWAFSSENNRLRVLKHFDLKSLKGFGLEELSMAVTAAGAVLNYLDLTQHHQLQHITSLSRLDENRYVRLDKFTVRSLELLSPMNEGGKSLLDIIDHTITPMGARRIRQWIVFPLKDPARIQARQRVVEFFFRHPEERAIIAEHLTEIGDLERLVTKGAMGRISPREMVQLRVALQALEPIKEVCTHADEENLRTLGGKLELCKELRDKILREVMPDAPAALGRGPVIAHGVDATLDELRALAYSGKDYLIKLQQQEIERTGIPSLKVAYNNVFGYYIEVRNTHKDKVPAEWIRKQTLVSAERYITEELKEYEAKILGAEEKIAALEGQLYALLVAELQRYVAPLQQDSQAVASLDCLLSFAESARRYRFICPVVDESFTIDIKAGRHPVIEQQLPADEPYIANDIYLDTDRQQVIIVTGPNMSGKSALLRQTALISLMAQIGSFVPAESARIGMVDSIFTRVGASDNISMGESTFMVEMQEASNILNNLTPRSLVLFDELGRGTSTYDGISIAWSIVEYIHDNPKAHPRTLFATHYHELNELEGQLDRVHNFNVSAREVDGKMLFLRKLEPGGSAHSFGIQVARLGGMPHHIVQRATDILHRLEQEREKIEEEEPKTKDTKRGPSEKVKNASPTLPRDEKGRSIDGYQLSFFQLDDPVLSQIREEILDLNIDNLTPLEALNKLNDIKRILRGY", "protein production": "failed"},
      {"sequence": "MAKSKKIVFTGGGTVGHVTLNLILIPKFLKDGWEVHYIGDKHGVEHEQIDKSGLDVTFHSIATGKLRRYFSWQNMLDVFKVGWGILQSIAIIAKIRPQALFSKGGFVSVPPVIASKLLRVPVYVHESDLSMGLANKIAYKFATTMFTTFEQSKTLVKTRHVGAITKVGMTRFDNSDQLDKIKEQFDEKLKTVLFIGGSAGAKVFN", "protein production": "failed"},
      {"sequence": "MAKSRLLLSELLDQLSFALCIVRNDYVIVKVNEYFESRVIFDGETMQGKNILELFPESADYLKRKIDTALVIESSSFSSWEQKPHLLPFKSSRPVSGEEEQMYQNLEVIPIHSEDGTIEHVCLCVYDVTIQASQQQ", "protein production": "not failed"},
      {"sequence": "MAKVSVYIIAYNEEQKIEPALQSVTWADEIVVIDSFSTDRTAEIARKYTDKVIQVPFEGFGKLRNSAIAATSHEWIFSLDTDERCTEEAKNEILAIIDSPDALDAYYVPRRNIFMGRWVKHSGWYPDYRQPQLFRRGAQVFTDEVVHESFTTIGRVGHMKNAIWQIPFRNFEQMISKIDRYSTLGAAKMTAKGVRPGMGKALFHALFAFFRMYILRLGILDGWAGFVIALYTFEGTFYRYAKQVEAARGWVMTRPEELER", "protein production": "failed"},
      {"sequence": "MAKVVKLEPISRETTVNTNDNLLSALLDSELHVLKECGGRGMCATCHVYIKEGMESLSPINKREQRTLEVITTANATSRLACQARVLGPGVVVELPSGMYVNAVEDIESLIGRRAEQDILHPLDGRVLVEAGKLITRTMITQLKDTQVQVGQYFANTSDALEHHHHHH", "protein production": "not failed"},
      {"sequence": "MAKYFGTDGIRGEVANSTITVEFTQKLGNAVGSLINQKNYPKFVIVGQDTRSSGGFLKFALVSGLNAAGIDVLDLGVVPTPVVAFMTVKHRAAAGFVITASHNKFTDNGIKLFSSNGFKLDDALEEEVEDMIDGDFIYQPQFKFGSYKILANAIDEYIESIYSRFAKFVNYKGKVVVDCAHGAASHNFEALLDKFGINYVSIASNPDGLNINVGCGATCVSNIKKAVKEQKADLGISLDGDADRIIIVDENGQEIDGDGILNILAQYSDICGGTNGIVGTQMTNMSYENHYRANKIPFIRSKVGDRYVLEDLVKYGYKIGGESSGHVINLNFGTTGDGLFTAIQLLAIFSQADKPVSEFKLQGELMQQTLINVPLTKKVAREDLQKVASDVNDVEKRLGNRGRVLLRPSGTEPVLRVMVEADDKSLATNEAEYLVEKVKQKLV", "protein production": "not failed"},
      {"sequence": "MAKYNEIAKKKREAKADRKRAIHGDPLTNKLKTRTPVPSVSGKRQRKLLRKWRREQKDMVEKGLVTMEDVEMASAQAASEDSKKSPRKFSVKKSLKLNKLNNKGKKKKNQKASGEKSADCMLE", "protein production": "failed"},
      {"sequence": "MALAMNRSITAITVTHNSAHTVRGALARLPPGVEIVCVDNASTDDLSTALSDLAVHRIDNPVNLGFGRACNIGAAAATGEYLLFINPDVRLGTDAVDALLQAAERYPNCGVFVPRTNTVDGRLWFREESEIDRLSGVSLPTRIRQVWGDCCVRFVNGGVFMIKRTLFLDTGGFDEDIFLYFEDDDLSYRLLQRDEPMILVSGAHAVHDIGTSVAQSTRSRIFRYRSKMRSEIHLRKKYGIAYSPFVDILRYSTKIGFYCLTLNRNRLINSLGRLIGIFDSILDRSRANRNGGYVALEHHHHHH", "protein production": "not failed"}
    ]}
  ]
}
